Laboratory results taken from the Immune Epitope Database (IEDB).

Experiments:
[1] = biological target: HLA-A*68:02; assay: IEDB peptide-MHC binding, purified MHC/competitive/fluorescence; filed as Kd, often an IC50 or EC50 that approximates it; ≥ and ≤ were set here for values at or beyond the usual limits of such assays; conditions: source organism: Escherichia coli HS
[2] = biological target: HLA-A*69:01; assay: as above; conditions: source organism: Zaire ebolavirus
[3] = biological target: HLA-A*02:01; assay: as above; conditions: source organism: Zaire ebolavirus
[4] = biological target: HLA-A*26:01; assay: as above; conditions: source organism: Zaire ebolavirus
[5] = biological target: HLA-B*46:01; assay: as above; conditions: source organism: Zaire ebolavirus
[6] = biological target: HLA-B*39:01; assay: as above; conditions: source organism: Zaire ebolavirus
[7] = biological target: HLA-B*15:17; assay: as above; conditions: source organism: Zaire ebolavirus
[8] = biological target: HLA-B*15:01; assay: as above; conditions: source organism: Zaire ebolavirus
[9] = biological target: HLA-B*18:01; assay: as above; conditions: source organism: Zaire ebolavirus
[10] = biological target: HLA-B*51:01; assay: as above; conditions: source organism: Zaire ebolavirus
[11] = biological target: HLA-B*27:03; assay: as above; conditions: source organism: Zaire ebolavirus
[12] = biological target: HLA-B*57:01; assay: as above; conditions: source organism: Zaire ebolavirus
[13] = biological target: HLA-A*02:12; assay: IEDB peptide-MHC binding, purified MHC/direct/fluorescence; filed as Kd, often an IC50 or EC50 that approximates it; ≥ and ≤ were set here for values at or beyond the usual limits of such assays; conditions: source organism: Ebola virus Yambio0403
[14] = biological target: HLA-A*02:03; assay: as above; conditions: source organism: Ebola virus Yambio0403
[15] = biological target: HLA-A*02:16; assay: as above; conditions: source organism: Ebola virus Yambio0403
[16] = biological target: HLA-A*68:02; assay: as above; conditions: source organism: Ebola virus Yambio0403
[17] = biological target: HLA-A*24:03; assay: as above; conditions: source organism: Zaire ebolavirus
[18] = biological target: HLA-A*02:19; assay: as above; conditions: source organism: Ebola virus Yambio0403
[19] = biological target: HLA-A*29:02; assay: as above; conditions: source organism: Ebola virus Yambio0403
[20] = biological target: HLA-A*03:01; assay: as above; conditions: source organism: Ebola virus Yambio0403
[21] = biological target: HLA-A*02:11; assay: as above; conditions: source organism: Ebola virus Yambio0403

Measured: Kd

EAIRQIHAQ
0.809 µM: [1]

SWHHTSDDF
0.0187 µM: [17]
≥ 20 µM: [2] | [3] | [4] | [5] | [6] | [7] | [8] | [9] | [10] | [11] | [12] | [13] | [14] | [15] | [16] | [18] | [19] | [20] | [21]
